The source of these data is PMC7935256 (PLoS Pathogens, 2021).

Common to all, as to assay: BLI
What all share (details): both partners purified

Assay [1] addresses T1, DENV1 WestPac74 strain recombinant E protein ectodomain (residues 1-394) (dengue virus serotype 1, strain WestPac …).
T1 construct: also called DENV1 WestPac 74 rE protein; Western Pacific 1974

For assay [2], the target named is T2, DENV2 PVP94/07 strain recombinant E protein ectodomain (residues 1-394) (dengue virus serotype 2, strain PVP94/07).
T2 construct: also called DENV2 PVP94/07 rE protein

Assay [3] addresses DENV2 NGC strain recombinant E protein ectodomain (residues 1-394) (dengue virus serotype 2, strain NGC).

B1: human monoclonal antibody (HMAb) 1C19, IgG (antibody, V domains shown)
VH: QVQLVESGGGVVQPGRSLRLSCAASGFIFSNYGMHWVRQAPGKGLEWVAVISYDGSDKRYADSVRGRFTISRDNSKNTLFLQVTSLRAEDTAVYYCAKELSGYDPGFEYWGQGTPVTVSS
VL: DIQMTQSPSTLSASVGDRVTITCRASQSINTWLAWYQQKPGKAPKLLIYKASSLESGVPSRFSGSGSGTEFTLTISSLQPDDFATYYCQQYESYATFGQGTKVDIK
notes: also called IgG 1C19
Consider B1, for which the Kd (in general, the concentration at which binding is half-saturated) in assay [1] is 0.844 nM; in assay [2], 19 nM; in assay [3] it was 4.55 nM.
